Consider 3 variants from publication PMC11257983 (2024).

The labels stand for the following.
B1: Flag-CNK^2–549 [Drosophila] / GST-HYP [Drosophila] (parent complex)
chain 1: AYINIAEWTPDQVTDWIKGLDESMKGYLYEFSKQEIGGRALLNIRPYELENLGMLRIGHQEIVLEAVENLRNFHYHLKNDNLQFMALHVATAAKNLHRELARNHAESTKIDTRILHDITRTIATLKPLVGSLERTPFRKQEMYREYCGNVLKCGLELATIAHRDRFALQPVPAIRQSAERLENLANFVIQDISDPMVLQPASLNLVTLKKRESELGFNIESSYNGIHRVTDIKYNSPAHNSGKIEDGDEIVQINYQTVVGWQHRTVLEHLREALPDVVLTVKKRPKHTKMFGQIYMQPYRLPSKKRNMAARWAAQMPSPRAAFLTLDTEQLATGGTGSAVPDPSKSLSSEKREVLTKANPVSSASDSDSSCSDIPTPTDPKLAAREIRLYYPKPRALLQRRNTICGCEYLSLKNSDLVVPSWHERKPGIGSPTNCDPGSPSIRDKSISFGYGLEMAARPTTCIGIAGDTSTDKARRMFHEARKLKQLTEDSQREFLVDRYKPGVSKVVRFDAKEDYVMKNEKFICNVENTILETFEPIPFADEGDEDA
chain 2: MGEETINSTQNKTRTKTTRPKAVYLWTVSDVLKWYRRHCGEYTQYEQLFAQHDITGRALLRITDSSLQRMGVTDNRDREAIWREIVKQRLKTDIMEIRDMERLNIY

In the first assay the parent is B1. Put plainly: GST pull-down, immunoblot quantification; S2 cells; GST-HYP + RRKM co-expressed; anti-Flag (CNK) blot; parent: 1. For orientation: In western blotting, separated proteins are transferred to a membrane and probed.
Regarding chain 1 AYINIAEWTPDQVTDWIKGLDESMKGYLYEFSKQEIGGRALLNIRPYELENLGMLRIGHQEIVLEAVENLRNFHYHLKNRNLQFMALHVATAAKNLHRELARNHAESTKIDTRILHDITRTIATLKPLVGSLERTPFRKQEMYREYCGNVLKCGLELATIAHRDRFALQPVPAIRQSAERLENLANFVIQDISDPMVLQPASLNLVTLKKRESELGFNIESSYNGIHRVTDIKYNSPAHNSGKIEDGDEIVQINYQTVVGWQHRTVLEHLREALPDVVLTVKKRPKHTKMFGQIYMQPYRLPSKKRNMAARWAAQMPSPRAAFLTLDTEQLATGGTGSAVPDPSKSLSSEKREVLTKANPVSSASDSDSSCSDIPTPTDPKLAAREIRLYYPKPRALLQRRNTICGCEYLSLKNSDLVVPSWHERKPGIGSPTNCDPGSPSIRDKSISFGYGLEMAARPTTCIGIAGDTSTDKARRMFHEARKLKQLTEDSQREFLVDRYKPGVSKVVRFDAKEDYVMKNEKFICNVENTILETFEPIPFADEGDEDA [chain 1 D80R], the ratio to parent is 1.03.

Turning to chain 1 AYINIAEWTPDQVTDWIKGLDESMKGYLYEFSKQEIGGRALLNIRPYELENLGMLRIGHQEIVLEAVENLRNFHYHLKNRNLQFMALHVATAAKNLHRELARNHAESTKIDTRILHDITRTIATLKPLVGSLERTPFRKQEMYREYCGNVLKCGLELATIAHRDRFALQPVPAIRQSAERLENLANFVIQDISDPMVLQPASLNLVTLKKRESELGFNIESSYNGIHRVTDIKYNSPAHNSGKIEDGDEIVQINYQTVVGWQHRTVLEHLREALPDVVLTVDKRPKHTKMFGQIYMQPYRLPSKKRNMAARWAAQMPSPRAAFLTLDTEQLATGGTGSAVPDPSKSLSSEKREVLTKANPVSSASDSDSSCSDIPTPTDPKLAAREIRLYYPKPRALLQRRNTICGCEYLSLKNSDLVVPSWHERKPGIGSPTNCDPGSPSIRDKSISFGYGLEMAARPTTCIGIAGDTSTDKARRMFHEARKLKQLTEDSQREFLVDRYKPGVSKVVRFDAKEDYVMKNEKFICNVENTILETFEPIPFADEGDEDA [chain 1 D80R, chain 1 K282D], the ratio to parent was 0.73.

The variants in another assay derive from B1. The assay can be described thus: GST pull-down, immunoblot quantification; S2 cells; only Flag-CNK2–549 and GST-HYP co-expressed; anti-Flag blot; parent: 1.
Consider chain 1 AYINIAEWTPDQVTDWIKGLDESMKGYLYEFSKQEIGGRALLNIRPYELENLGMLRIGHQEIVLEAVENLRNFHYHLKNRNLQFMALHVATAAKNLHRELARNHAESTKIDTRILHDITRTIATLKPLVGSLERTPFRKQEMYREYCGNVLKCGLELATIAHRDRFALQPVPAIRQSAERLENLANFVIQDISDPMVLQPASLNLVTLKKRESELGFNIESSYNGIHRVTDIKYNSPAHNSGKIEDGDEIVQINYQTVVGWQHRTVLEHLREALPDVVLTVKKRPKHTKMFGQIYMQPYRLPSKKRNMAARWAAQMPSPRAAFLTLDTEQLATGGTGSAVPDPSKSLSSEKREVLTKANPVSSASDSDSSCSDIPTPTDPKLAAREIRLYYPKPRALLQRRNTICGCEYLSLKNSDLVVPSWHERKPGIGSPTNCDPGSPSIRDKSISFGYGLEMAARPTTCIGIAGDTSTDKARRMFHEARKLKQLTEDSQREFLVDRYKPGVSKVVRFDAKEDYVMKNEKFICNVENTILETFEPIPFADEGDEDA [chain 1 D80R], for which the ratio to parent was 0.46.

chain 1 AYINIAEWTPDQVTDWIKGLDESMKGYLYEFSKQEIGGRALLNIRPYELENLGMLRIGHQEIVLEAVENLRNFHYHLKNRNLQFMALHVATAAKNLHRELARNHAESTKIDTRILHDITRTIATLKPLVGSLERTPFRKQEMYREYCGNVLKCGLELATIAHRDRFALQPVPAIRQSAERLENLANFVIQDISDPMVLQPASLNLVTLKKRESELGFNIESSYNGIHRVTDIKYNSPAHNSGKIEDGDEIVQINYQTVVGWQHRTVLEHLREALPDVVLTVDKRPKHTKMFGQIYMQPYRLPSKKRNMAARWAAQMPSPRAAFLTLDTEQLATGGTGSAVPDPSKSLSSEKREVLTKANPVSSASDSDSSCSDIPTPTDPKLAAREIRLYYPKPRALLQRRNTICGCEYLSLKNSDLVVPSWHERKPGIGSPTNCDPGSPSIRDKSISFGYGLEMAARPTTCIGIAGDTSTDKARRMFHEARKLKQLTEDSQREFLVDRYKPGVSKVVRFDAKEDYVMKNEKFICNVENTILETFEPIPFADEGDEDA [chain 1 D80R, chain 1 K282D]: the ratio to parent was 1.03.

Variants of B1 are the subject of another assay. The assay can be described thus: GST pull-down, immunoblot quantification; S2 cells; GST-HYP + RRKM co-expressed; anti-Flag (CNK) blot; parent: 1. This is another data set of the same source.
chain 1 AYINIAEWTPDQVTDWIKGLDESMKGYLYEFSKQEIGGRALLNIRPYELENLGMLRIGHQEIVLEAVENLRNFHYHLKNDNLQFMALHVATAAKNLHRELARNHAESTKIDTRILHDITRTIATLKPLVGSLERTPFRKQEMYREYCGNVLKCGLELATIAHRDRFALQPVPAIRQSAERLENLANFVIQDISDPMVLQPASLNLVTLKKRESELGFNIESSYNGIHRVTDIKYNSPAHNSGKIEDGDRIRQINYQTVVGWQHRTVLEHLREALPDVVLTVKKRPKHTKMFGQIYMQPYRLPSKKRNMAARWAAQMPSPRAAFLTLDTEQLATGGTGSAVPDPSKSLSSEKREVLTKANPVSSASDSDSSCSDIPTPTDPKLAAREIRLYYPKPRALLQRRNTICGCEYLSLKNSDLVVPSWHERKPGIGSPTNCDPGSPSIRDKSISFGYGLEMAARPTTCIGIAGDTSTDKARRMFHEARKLKQLTEDSQREFLVDRYKPGVSKVVRFDAKEDYVMKNEKFICNVENTILETFEPIPFADEGDEDA [chain 1 E249R, chain 1 V251R]: the ratio to parent amounted to 0.08.

The variants in a further assay derive from B1. Put plainly: GST pull-down, immunoblot quantification; S2 cells; only Flag-CNK2–549 and GST-HYP co-expressed; anti-Flag blot; parent: 1. The source holds these as a separate data set.
As to chain 1 AYINIAEWTPDQVTDWIKGLDESMKGYLYEFSKQEIGGRALLNIRPYELENLGMLRIGHQEIVLEAVENLRNFHYHLKNDNLQFMALHVATAAKNLHRELARNHAESTKIDTRILHDITRTIATLKPLVGSLERTPFRKQEMYREYCGNVLKCGLELATIAHRDRFALQPVPAIRQSAERLENLANFVIQDISDPMVLQPASLNLVTLKKRESELGFNIESSYNGIHRVTDIKYNSPAHNSGKIEDGDRIRQINYQTVVGWQHRTVLEHLREALPDVVLTVKKRPKHTKMFGQIYMQPYRLPSKKRNMAARWAAQMPSPRAAFLTLDTEQLATGGTGSAVPDPSKSLSSEKREVLTKANPVSSASDSDSSCSDIPTPTDPKLAAREIRLYYPKPRALLQRRNTICGCEYLSLKNSDLVVPSWHERKPGIGSPTNCDPGSPSIRDKSISFGYGLEMAARPTTCIGIAGDTSTDKARRMFHEARKLKQLTEDSQREFLVDRYKPGVSKVVRFDAKEDYVMKNEKFICNVENTILETFEPIPFADEGDEDA [chain 1 E249R, chain 1 V251R], the ratio to parent was 0.05.
